Article doi:10.1101/2022.11.07.515396, “Functional and structural asymmetry suggest a unifying principle for catalysis in integral membrane-bound pyrophosphatases” (bioRxiv, 2022)

B1: K+-independent H+-pumping membrane-bound pyrophosphatase from Pyrobaculum aerophilum (PaPPase), wild type (enzyme, UniProt Q8ZWI8 1-721, looked up)
chain: MNMISYALLGVILGISGVIYAVYLAVWVLRQDPGNEKMRFISQAIATGARAYLFRQYRTLAVLLVILAVLILVAIDMPRRTFGLTALAFIVGALGSMLAGYLGMYVTTRSASRVAQAAATGGMGKALLVSWRAGAVMGLSLASIALLLISGFYLVFRSVLPDDWAVPLVALGFGASLVTLFMRVGGGIYTKAADLGADLVGKVEAGIPEDDPRNPGVIADNVGDNVGDVAGMAADVYESYIVTVTAAIFLAAILGLPTQFIEAIILFAALALVATFAGVNLLKTTGVKHPLSSISLAIYATIGLSVVLFFIGAFTLGLDSTKALALAATTSLGAVIAPLIVKITDYYTSYNYGPVRKIAEQAKISPATVIITGYGVGLMSAIPVIAVIVAVLGISYMIGYYTVPVSGFGELSKYLAGIFGTAMASVGLLVVAGIIITADSYGPVSDNAGGVVEMAGLPDEVREITDVLDSVGNTTKATTKGYAIASAALAALVLFIALIFEIVYSASKILGKGIVDMISESLSGLQLINANVLIGAFLGVALVYFFSSRTLEAVGRTAMEIVEEIRRQFREKPGILEWKEQPDYARVVDIATRRALGEFLIPGLAAIVLPLITGLLLGWNALAGLIMGAIVAGVPRALLMANAGGAWDNAKKYIEIQGLKKTEMHKAAVIGDTVGDPMKDTVGPSLNPLIKVLNTLSVVFTYVIVSTNIALGIWPSGLLPF
notes: also called PaPPase:Mg5IDP; K+-independent H+-PPase; source: S. cerevisiae BJ1991, purified (hot-solve in DDM, nickel-NTA, protein in DM for crystals)
B2: K+-dependent Na+-pumping membrane-bound pyrophosphatase from Thermotoga maritima (TmPPase), wild type (enzyme, UniProt Q9S5X0 1-726, looked up)
chain: MYVAALFFLIPLVALGFAAANFAAVVRKPEGTERMKEISSYIRSGADSFLAHETKAIFKVAIVIAILLMIFTTWQTGVAFLLGAVMSASAGIVGMKMATRANVRVAEAARTTKKIGPALKVAYQGGSVMGLSVGGFALLGLVLVYLIFGKWMGQVDNLNIYTNWLGINFVPFAMTVSGYALGCSIIAMFDRVGGGVYTKAADMAADLVGKTELNLPEDDPRNPATIADNVGDNVGDVAGLGADLLESFVGAIVSSIILASYMFPIYVQKIGENLVHQVPKETIQALISYPIFFALVGLGCSMLGILYVIVKKPSDNPQRELNISLWTSALLTVVLTAFLTYFYLKDLQGLDVVGFRFGAISPWFSAIIGIFSGILIGFWAEYYTSYRYKPTQFLSKSSIEGTGMVISNGLSLGMKSVFPPTLTLVLGILFADYFAGLYGVAIAALGMLSFVATSVSVDSYGPIADNAGGISEMCELDPEVRKITDHLDAVGNTTAAIGKGFAIGSAIFAALSLFASYMFSQISPSDIGKPPSLVLLLNMLDARVIAGALLGAAITYYFSGYLISAVTKAAMKMVDEIRRQAREIPGLLEGKAKPDYNRCIEITSDNALKQMGYPAFIAILTPLVTGFLLGAEFVGGVLIGTVLSGAMLAILTANSGGAWDNAKKYLEAGNLEGYGKGSEPHKALVIGDTVGDPLKDTVGPSLDILIKIMSVVSVIAVSIFKHVHLF
notes: also called K+-dependent Na+-PPase; TmPPase:Mg2; source: S. cerevisiae BJ1991, purified (hot-solve, nickel-NTA, in OGNG)

What was measured:
[1] = biological target: the molecule itself; experiment: crystal structure; PaPPase in DM with 2 mM IDP, vapour diffusion, 30-33% v/v PEG 400, 0.1 M MES pH 6.5, 0.05 M LiSO4, 0.05 M NaCl, 20 °C; space group P21; eight datasets combined; molecular replacement with PDB 5LZQ
[2] = biological target: the molecule itself; experiment: crystal structure; TmPPase in OGNG with 0.4 mM K4PPi, vapour diffusion, 24-26% v/v PEG 400, 50-60 mM Tris-HCl pH 8.5, 2-3 mM MgCl2, 175 mM KCl, 2 mM DTT, 20 °C; time-resolved cryo-trapping after soaking in Na+ trigger solution (0-3600 seconds); molecular replacement with PDB 4AV3

| Protein | stoichiometry N [1] | stoichiometry N [2] |
| --- | --- | --- |
| B1 | 2 | – |
| B2 | – | 2 |
